According to article PMC10881042:

Columns and labels:
[1] = molecular target: PKA type II regulatory subunit RIIα, in H295R adrenal cells (UniProt P13861)
[2] = molecular target: PKA type I regulatory subunit RIα, in H295R adrenal cells (human (endogenous in H295R)) (UniProt P10644)
UniProt P10644, sequence (P10644 whole entry, stated change not applied): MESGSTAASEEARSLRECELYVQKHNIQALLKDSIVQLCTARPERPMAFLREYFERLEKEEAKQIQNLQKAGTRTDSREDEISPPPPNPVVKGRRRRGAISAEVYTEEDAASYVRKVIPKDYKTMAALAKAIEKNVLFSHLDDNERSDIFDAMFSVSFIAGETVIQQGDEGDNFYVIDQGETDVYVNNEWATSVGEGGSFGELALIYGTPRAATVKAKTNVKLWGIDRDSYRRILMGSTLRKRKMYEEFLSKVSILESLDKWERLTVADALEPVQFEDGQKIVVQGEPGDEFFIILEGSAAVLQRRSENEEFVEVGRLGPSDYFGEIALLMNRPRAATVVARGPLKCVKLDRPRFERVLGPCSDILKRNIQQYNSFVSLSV

UniProt P13861, sequence (P13861 whole entry, stated change not applied): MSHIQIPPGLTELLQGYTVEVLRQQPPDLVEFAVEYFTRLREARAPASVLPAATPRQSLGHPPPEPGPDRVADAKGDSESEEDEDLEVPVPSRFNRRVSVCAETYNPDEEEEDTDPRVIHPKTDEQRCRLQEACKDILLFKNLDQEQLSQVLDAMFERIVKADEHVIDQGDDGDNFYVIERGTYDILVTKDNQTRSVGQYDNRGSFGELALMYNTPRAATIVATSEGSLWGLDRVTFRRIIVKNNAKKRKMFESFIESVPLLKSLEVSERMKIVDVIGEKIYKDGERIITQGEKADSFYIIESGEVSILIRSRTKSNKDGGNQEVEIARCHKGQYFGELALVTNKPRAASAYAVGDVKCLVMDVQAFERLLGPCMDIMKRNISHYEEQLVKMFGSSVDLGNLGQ

V5-tagged PKAc-W196R, in H295R adrenal cells (enzyme)
residence of photoactivatable-mCherry PKAc at the site of photoactivation after 12.5 s in H295R cells with AKAP79-YFP and RIIα-iRFP [1]: 30%
residence of photoactivatable-mCherry PKAc at the site of photoactivation after 12.5 s in H295R cells with smAKAP-GFP and RIα-iRFP [2]: 40%
